Biological target: T1, MLO-Y4 cell surface proteins (Mus musculus, UniProt O88492)
T1 construct: endogenous in cells; host or cells: MLO-Y4
T1 sequence (O88492 1-1403): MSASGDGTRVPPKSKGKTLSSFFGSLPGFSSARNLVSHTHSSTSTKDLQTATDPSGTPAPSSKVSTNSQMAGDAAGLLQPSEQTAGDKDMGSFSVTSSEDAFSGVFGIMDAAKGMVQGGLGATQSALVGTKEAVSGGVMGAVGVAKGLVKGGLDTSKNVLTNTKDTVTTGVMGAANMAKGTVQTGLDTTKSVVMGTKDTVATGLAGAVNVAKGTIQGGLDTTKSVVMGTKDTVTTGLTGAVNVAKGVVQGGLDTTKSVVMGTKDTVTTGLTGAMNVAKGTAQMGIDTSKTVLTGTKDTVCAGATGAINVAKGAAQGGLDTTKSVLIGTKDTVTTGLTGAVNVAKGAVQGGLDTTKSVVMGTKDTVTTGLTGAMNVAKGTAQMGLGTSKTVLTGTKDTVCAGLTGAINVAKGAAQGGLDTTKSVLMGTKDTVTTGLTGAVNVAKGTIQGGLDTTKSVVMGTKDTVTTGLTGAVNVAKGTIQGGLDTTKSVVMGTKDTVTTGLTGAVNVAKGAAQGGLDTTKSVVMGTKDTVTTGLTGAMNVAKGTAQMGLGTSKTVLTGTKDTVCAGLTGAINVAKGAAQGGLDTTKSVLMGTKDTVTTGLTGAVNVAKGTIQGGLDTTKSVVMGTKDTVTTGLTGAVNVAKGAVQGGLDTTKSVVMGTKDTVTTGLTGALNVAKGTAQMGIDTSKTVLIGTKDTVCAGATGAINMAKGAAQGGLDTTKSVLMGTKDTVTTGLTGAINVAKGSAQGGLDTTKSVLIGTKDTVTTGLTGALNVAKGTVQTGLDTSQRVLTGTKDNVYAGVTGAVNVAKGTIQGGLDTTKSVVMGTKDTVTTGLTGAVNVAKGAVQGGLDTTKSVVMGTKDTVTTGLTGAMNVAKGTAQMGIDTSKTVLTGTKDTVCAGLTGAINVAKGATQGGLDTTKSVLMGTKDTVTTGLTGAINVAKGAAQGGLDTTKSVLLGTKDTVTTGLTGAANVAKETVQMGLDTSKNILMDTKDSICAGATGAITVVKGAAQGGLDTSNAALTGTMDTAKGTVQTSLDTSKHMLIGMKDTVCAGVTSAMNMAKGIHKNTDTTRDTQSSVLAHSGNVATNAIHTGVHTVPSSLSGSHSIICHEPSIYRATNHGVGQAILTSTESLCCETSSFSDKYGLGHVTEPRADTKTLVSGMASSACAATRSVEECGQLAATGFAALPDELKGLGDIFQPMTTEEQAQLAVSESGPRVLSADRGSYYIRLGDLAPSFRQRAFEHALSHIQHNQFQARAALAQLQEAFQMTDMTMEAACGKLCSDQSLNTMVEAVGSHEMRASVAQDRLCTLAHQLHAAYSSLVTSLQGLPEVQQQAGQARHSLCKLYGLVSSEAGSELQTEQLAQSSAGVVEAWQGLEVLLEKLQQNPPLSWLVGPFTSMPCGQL
Experiment: Crosslinking/co-immunoprecipitation/mass spectrometry (TMT quantitative proteomics) to identify irisin receptors
Type: binding
Conditions: co-precipitated protein Plin4 (PLIN4_MOUSE)
How it was run: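 Mouse MLO-Y4 cells were switched to serum-free FreeStyle medium for 4 h, chilled, then exposed to 10 nM His-tagged irisin (or adipsin as control) for 20 min. Cells were crosslinked with 1.5 mM DTSSP (30 min, ice), and bound proteins were pulled down on Ni-NTA and eluted with 250 mM imidazole. Eluates were separated by SDS-PAGE, trypsin-digested in gel, TMT 6-plex labelled and quantified by MS3-based LC-MS/MS on an Orbitrap Fusion Lumos.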

B1: irisin: secreted cleaved form of FNDC5; recombinant human/mouse irisin with C-terminal his tag produced in HEK293 cells (protein)
chain: DSPSAPVNVTVRHLKANSAVVSWDVLEDEVVIGFAISQQKKDVRMLRFIQEVNTTTRSCALWDLEEDTEYIVHVQAISIQGQSPASEPVLFKTPREAEKMASKNKDEVTMKE
modifications: left off: small tags and cut ends
notes: secreted cleaved form of FNDC5; recombinant human/mouse irisin with C-terminal his tag produced in HEK293 cells
For B1, the TMT signal-to-noise ratio was 18.9196 and the “irisin/adipsin TMT signal-to-noise ratio” value was 0.169.
